Laboratory results from paper PMC2575790.

Molecular target: GST–α-adaptin ear (UniProt P17427)
Assay: pull-down

Sequence of GST–α-adaptin ear (P17427 whole entry): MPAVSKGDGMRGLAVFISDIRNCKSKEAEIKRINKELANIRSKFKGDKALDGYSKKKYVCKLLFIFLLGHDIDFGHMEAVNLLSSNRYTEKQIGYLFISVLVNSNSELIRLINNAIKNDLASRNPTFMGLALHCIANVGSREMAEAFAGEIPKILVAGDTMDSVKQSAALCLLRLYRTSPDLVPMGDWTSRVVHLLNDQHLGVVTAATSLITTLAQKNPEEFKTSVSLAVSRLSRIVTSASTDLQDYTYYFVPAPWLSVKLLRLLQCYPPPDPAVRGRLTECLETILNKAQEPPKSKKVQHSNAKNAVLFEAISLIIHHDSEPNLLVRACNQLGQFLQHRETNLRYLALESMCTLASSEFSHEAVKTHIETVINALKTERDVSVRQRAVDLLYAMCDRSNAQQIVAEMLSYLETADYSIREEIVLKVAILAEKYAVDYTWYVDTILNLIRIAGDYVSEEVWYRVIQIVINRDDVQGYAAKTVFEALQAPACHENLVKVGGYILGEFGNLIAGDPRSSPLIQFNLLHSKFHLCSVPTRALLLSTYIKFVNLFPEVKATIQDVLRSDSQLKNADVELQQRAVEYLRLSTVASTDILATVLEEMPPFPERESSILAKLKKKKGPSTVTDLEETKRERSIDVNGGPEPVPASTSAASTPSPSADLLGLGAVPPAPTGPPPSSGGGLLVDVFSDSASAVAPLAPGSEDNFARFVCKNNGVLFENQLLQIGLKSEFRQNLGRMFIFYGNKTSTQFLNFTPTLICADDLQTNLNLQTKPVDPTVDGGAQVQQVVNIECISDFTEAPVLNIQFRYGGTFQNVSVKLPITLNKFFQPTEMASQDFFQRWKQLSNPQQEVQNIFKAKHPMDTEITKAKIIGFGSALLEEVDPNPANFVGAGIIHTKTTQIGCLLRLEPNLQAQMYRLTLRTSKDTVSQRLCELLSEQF
Sequence of HA–hRME-6^wt (human RME-6, full length) (natural protein) (Q14C86 whole entry): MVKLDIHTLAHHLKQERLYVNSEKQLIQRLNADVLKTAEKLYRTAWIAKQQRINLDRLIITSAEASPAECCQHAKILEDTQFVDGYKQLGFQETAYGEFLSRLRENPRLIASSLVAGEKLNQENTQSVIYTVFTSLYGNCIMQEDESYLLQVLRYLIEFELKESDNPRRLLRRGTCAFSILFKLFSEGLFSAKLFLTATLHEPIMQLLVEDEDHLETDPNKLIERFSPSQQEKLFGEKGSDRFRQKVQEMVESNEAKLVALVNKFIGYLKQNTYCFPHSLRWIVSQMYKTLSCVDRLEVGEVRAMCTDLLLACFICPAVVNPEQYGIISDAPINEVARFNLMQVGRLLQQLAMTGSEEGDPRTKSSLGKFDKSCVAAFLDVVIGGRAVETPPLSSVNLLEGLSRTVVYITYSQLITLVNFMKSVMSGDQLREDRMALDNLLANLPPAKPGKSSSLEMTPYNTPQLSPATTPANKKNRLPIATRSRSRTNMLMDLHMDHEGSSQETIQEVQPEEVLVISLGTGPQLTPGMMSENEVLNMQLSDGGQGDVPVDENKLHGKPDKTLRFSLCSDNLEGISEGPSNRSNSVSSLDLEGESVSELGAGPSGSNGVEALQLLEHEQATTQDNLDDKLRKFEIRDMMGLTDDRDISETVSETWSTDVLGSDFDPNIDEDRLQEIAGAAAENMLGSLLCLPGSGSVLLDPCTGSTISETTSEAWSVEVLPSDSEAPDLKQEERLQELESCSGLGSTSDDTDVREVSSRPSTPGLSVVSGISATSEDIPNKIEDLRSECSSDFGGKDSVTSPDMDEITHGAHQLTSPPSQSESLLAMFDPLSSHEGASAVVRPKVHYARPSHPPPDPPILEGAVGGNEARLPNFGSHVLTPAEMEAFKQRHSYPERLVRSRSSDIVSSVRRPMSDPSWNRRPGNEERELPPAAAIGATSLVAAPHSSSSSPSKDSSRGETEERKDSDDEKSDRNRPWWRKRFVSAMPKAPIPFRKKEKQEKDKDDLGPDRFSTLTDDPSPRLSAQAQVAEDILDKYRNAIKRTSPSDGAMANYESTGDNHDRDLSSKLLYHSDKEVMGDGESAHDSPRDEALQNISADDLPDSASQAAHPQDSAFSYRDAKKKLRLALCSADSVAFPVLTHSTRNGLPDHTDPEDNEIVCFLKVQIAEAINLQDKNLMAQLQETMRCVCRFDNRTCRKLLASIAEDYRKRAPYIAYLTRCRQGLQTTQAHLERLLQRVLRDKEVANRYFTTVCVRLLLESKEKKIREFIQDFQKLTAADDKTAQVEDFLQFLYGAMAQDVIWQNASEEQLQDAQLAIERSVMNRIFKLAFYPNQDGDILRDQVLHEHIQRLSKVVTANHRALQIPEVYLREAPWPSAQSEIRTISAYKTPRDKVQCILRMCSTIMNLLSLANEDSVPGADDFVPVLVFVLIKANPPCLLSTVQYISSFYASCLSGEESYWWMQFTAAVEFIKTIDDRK

Substance	fold reduction of binding against hRME-6^wt	fold reduction of binding against hRME-6 from mock-treated cytosol
HA–hRME-6^F1487A (natural protein)	5 fold	–
HA–hRME-6^wt (human RME-6, full length) (natural protein)	–	> 2 fold
